This note sets out measurements from patent publication US20240382677A1 (Regeneron, published 2024).

B1: H4xH9119P2 (antibody, V domains shown)
VH: EVQLVESGGGLVQPGRSLRLSCAASGFTFEDYAMHWVRQAPGKGLEWVSGIGWSNVKIGYADSVKGRFTISRDNVRNSLYLQMNSLRTEDTAFYYCVKAYTSMLTLYFDYWGQGTLVTVSS
VL: not shown
notes: human IgG4 Fc with 2 or more amino acid changes as in US20100331527 (H4xH prefix)
B2: H4xH9008P (antibody, V domains shown)
VH: EVQLVESGGGLVRPGGSLRLSCAASGFTFSTYAMAWVRQTPGKGLEGVSAIGGSGDSTYYVDSVKGRFTISRDNSKSTLFLQMNSLRAEDTAVYYCVKVRNYDGSFDIWGQGTMVTVSS
VL: not shown
notes: human IgG4 Fc with 2 or more amino acid changes as in US20100331527 (H4xH prefix); also called H4x19008P
B3: H4xH9145P2 (antibody, V domains shown)
VH: QVQLVESGGGVVQPGRSLRLSCSASGFTFSAYAMHWVRQAPGKGLEWVAAISYGGSDKYYADSVKGRFTISRDNSKNTLYLQMNSLRTDDTAVYYCAKSAHWNFFFDYWGQGTLVTVSS
VL: not shown
notes: human IgG4 Fc with 2 or more amino acid changes (US20100331527)
B4: H4H9048P2 (antibody, human IgG4 S228P, kappa, V domains shown)
VH: QVQLVQSGAEVKRPGSSVKVSCKVSGVTFRNFAIIWVRQAPGQGLEWMGGIIPFFSAANYAQSFQGRVTITPDESTSTAFMELASLRSEDTAVYYCAREGERGHTYGFDYWGQGTLVTVSS
VL: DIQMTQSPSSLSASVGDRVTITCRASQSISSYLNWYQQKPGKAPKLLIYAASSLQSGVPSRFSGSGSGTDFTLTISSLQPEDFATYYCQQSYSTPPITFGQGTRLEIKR
notes: human IgG4 Fc
B5: H4xH9135P2 (antibody, V domains shown)
VH: EVQLVESGGSVVRPGGSLRLSCVVSGFTFEDYGLSWVRQIPGKGLEWVSGISWTGGNTGYADSVKGRFTISRDNAKNSLYLQMNSLRAEDTALYHCTRDRQWLMQWYFDYWGQGTLVTVSS
VL: not shown
notes: as for B3
B6: H4xH9120P2 (antibody, V domains shown)
VH: QVQLVQSGAEVKRPGASVKVSCKASGYTFTSFYMYWVRQAPGQGLEWMGIINPSDGSTSNAQKFQGRVTMTRDTSTSTVYMELSSLRSEDTAVYYCARRVAGDIFDIWGQGTMVTVSS
VL: not shown
notes: as for B3
B7: H4xH9119P2 (antibody, V domains shown)
VH: B1 VH
VL: not shown
notes: as for B3
B8: H4xH9128P2 (antibody, V domains shown)
VH: QVQLQESGPGLVKPSETLSLTCTVSGGSISSYHWNWIRQSPGKGLEWIGYIYYIGSTDYNPSLESRVTISVDTSKNQFSLKLSSVTAADTAVYYCARVPVGATGASDVWGQGTMVTVSS
VL: not shown
notes: as for B3
B9: H4H9068P2 (antibody, V domains shown)
VH: EVQLVESGGGLVQRGGSLRLSCAASGFSFSSYAMNWVRQAPGKGLEWVSTISDSGGSTYYADSVKGRFTISRDNSKNTLSLQMNSLRAEDTAVYYCAKDQGGSYPYYFHYWGQGTLVTVSS
VL: not shown
B10: H4H9019P (antibody, human IgG4, V domains shown)
VH: EVQLVESGGGVVRPGGSLRLSCAASGFTFDDYGMSWVRQVPGKGLEWVSGISWNDGKTVYAESVKGRFIISRDNAKNSLYLEMNSLRAEDTALYYCARDWQYLIERYFDYWGQGTLVTVSS
VL: not shown
notes: human IgG4 Fc; also called H4xH9019P
B11: H2aM7788N (antibody, mouse IgG2a, V domains shown)
VH: EVQLVESGGGLVQPGGSLRLSCGASGFTFRNYDMHWVRQITGKGLEWVSAIGSAGDTYYPDSVKGRFTISRENAKNSLYLQMNSLRVGDTAVYYCTRDIHCSSTRCYGMDVWGQGTTVTVSS
VL: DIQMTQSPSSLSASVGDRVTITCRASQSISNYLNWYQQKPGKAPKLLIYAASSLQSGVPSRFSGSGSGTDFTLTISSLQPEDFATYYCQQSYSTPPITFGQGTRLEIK
notes: human variable regions with mouse IgG2a Fc (H2aM prefix); also called H2M7788N; H2aM7788M
B12: H2aM7796N (antibody, mouse IgG2a, V domains shown)
VH: QVQLVESGGGVVQPGRSLRLSCAASGFTFSSYGMHWVRQAPGKGLEWVAIIWSDGDSEYNLDSVKGRFTISRDNSKNTLYLQMNSLRVEDSAVYYCARDRDLEDIWGQGTMVTVSS
VL: DIQMTQSPSSLSASVGDRVTITCRASQGIRNDLGWYQQKPGKAPKRLIYAASNLQSGVPSRFSGSGSGTEFTLTISSLQPEDFATYYCLQHNSYPLTFGGGTKVEIK
notes: mouse IgG2a Fc; also called H2M7796N
B13: H4H7798N (antibody, human IgG4, V domains shown)
VH: EVQLLESGGVLVQPGGSLRLSCAASGFTFSNFGMTWVRQAPGKGLEWVSGISGGGRDTYFADSVKGRFTISRDNSKNTLYLQMNSLKGEDTAVYYCVKWGNIYFDYWGQGTLVTVSS
VL: DIQMTQSPSSLSASVGDSITITCRASLSINTFLNWYQQKPGKAPNLLIYAASSLHGGVPSRFSGSGSGTDFTLTIRTLQPEDFATYYCQQSSNTPFTFGPGTVVDFRR
notes: human IgG4 Fc; also called M4H7798N; HAH7798N
B14: H2aM7780N (antibody, mouse IgG2a, V domains shown)
VH: QVQLVESGGGVVQSGRSLRLSCAASGFTFSSYGMHWVRQAPGKGLEWVAVIWYDGSNIYYSDSVKGRFTISRANSKNTLYLQMNSLRAEDTAVYYCARPGHWNYFFEYWGQGTLVTVSS
VL: DIQMTQSPSSLSASVGDRVTITCRASQSINNYLNWYQQKPGKAPKLLIYTASSLQSGVPSRFSGSGSGTDFTLTISSLQPEDFATYYCQQSYSTPPLTFGQGTQLEIK
notes: mouse IgG2a Fc; human variable regions; also called H2M7780N
B15: H4xH9034P (antibody, V domains shown)
VH: EVQLVESGGGVVRPGGSLRLSCTASGFTFDDYGMSWVRQAPGKGLEWISGIGWTGGRSSYADSVRGRFTISRDNAKNSLYLQMNSLGAEDTALYYCARDRQWLVQWYFDYWGQGTLVTVSS
VL: not shown
notes: human IgG4 Fc with 2 or more amino acid changes as in US20100331527 (H4xH prefix); also called H4xH9034P2; H4xH8034P2
B16: H1M7799N (antibody, mouse IgG1, V domains shown)
VH: EVQLVESGGGLVQPGGSLRLSCAASGFTVSNNYMSWVRQAPGKGLEWVSVIYSGGFTYYTDSVKGRFTISRHNSKNTLYLQMNSLRAEDTAVYYCARYYYDTSDYWTFFDYWGQGTLVTVSS
VL: EIVMTQSPATLSVSPGERATLSCRASQSVSSNLAWYQQKPGQAPRLLIYGASTRATGIPARFSGSGSGTEFTLTISSLQSGDFAVYYCQQYNNWPLTFGGGTKVEIN
notes: mouse IgG1 Fc; human variable regions
B17: H1M7800N (antibody, mouse IgG1, V domains shown)
VH: B16 VH
VL: B16 VL
notes: as for B16
B18: H2aM7798N (antibody, mouse IgG2a, V domains shown)
VH: B13 VH
VL: DIQMTQSPSSLSASVGDSITITCRASLSINTFLNWYQQKPGKAPNLLIYAASSLHGGVPSRFSGSGSGTDFTLTIRTLQPEDFATYYCQQSSNTPFTFGPGTVVDFR
notes: mouse IgG2a Fc; human variable regions; also called H2M7798N

The target of the first assay is T1, human PD-1 dimer (human PD-1-mFc or human PD-1-hFc) (human, Fc-mediated homodimer; one copy of the chain is given.).
T1 construct: also called hPD-1-mFc; hPD1-hFc; not shown: The C-terminal Fc tag
T1 sequence (chain, as listed by the source limits assumed): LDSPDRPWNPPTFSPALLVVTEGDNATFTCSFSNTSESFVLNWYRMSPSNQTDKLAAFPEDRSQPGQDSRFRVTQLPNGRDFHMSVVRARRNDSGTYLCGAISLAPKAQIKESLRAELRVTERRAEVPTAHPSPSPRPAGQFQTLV
Description: SPR Biacore, mAb captured, 25 C. On the technique in general: In SPR one partner is held on a chip, and binding of the other changes the refractive index at the surface.
Molecule B1 came in with a koff of 0.000152 s⁻¹.
B2 returned a Kd of 0.786 nM.

For a further assay, the target named is recombinant human PD-1 expressed with a C-terminal human IgG1 Fc tag (hPD-1-hFc) (human). Description: SPR Biacore 3000, captured hPD-L1-mFc.
Chain of recombinant human PD-1 expressed with a C-terminal human IgG1 Fc tag (hPD-1-hFc) (human) (chain, as listed by the source limits assumed): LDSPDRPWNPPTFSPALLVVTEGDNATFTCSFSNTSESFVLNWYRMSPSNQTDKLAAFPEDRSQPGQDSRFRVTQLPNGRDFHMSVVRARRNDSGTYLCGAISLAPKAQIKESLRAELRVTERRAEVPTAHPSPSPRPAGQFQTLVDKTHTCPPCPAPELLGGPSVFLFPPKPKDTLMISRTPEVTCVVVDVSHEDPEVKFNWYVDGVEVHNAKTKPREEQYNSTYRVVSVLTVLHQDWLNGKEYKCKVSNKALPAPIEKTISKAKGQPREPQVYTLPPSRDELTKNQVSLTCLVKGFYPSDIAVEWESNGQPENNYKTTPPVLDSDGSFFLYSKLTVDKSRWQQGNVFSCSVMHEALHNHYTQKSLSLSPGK
In the case of B3, the “binding of the mixture of 100 nM hPD-1-hFc and 500 nM antibody” value is -6 RU.
Turning to B4, the “% Blocking” value is 91%; the “binding of the mixture of 100 nM hPD-1-hFc and 500 nM antibody” value was 9 RU.
B5: the “binding of the mixture of 100 nM hPD-1-hFc and 500 nM antibody” value was -3 RU.
Same read-out and setting: to B6 belongs 0 RU.
The same measure, in the same setting: then B7, with -5 RU.
On the same count and under the same terms, to B8 belongs -5 RU.
As for B9, the “% Blocking” value was -265%; the “binding of the mixture of 100 nM hPD-1-hFc and 500 nM antibody” value turned out to be 365 RU.
With B10, the “binding of the mixture of 100 nM hPD-1-hFc and 500 nM antibody” value is -1 RU.

The next assay deals with T2, recombinant cynomolgus monkey PD-1 expressed with a C-terminal myc-myc-hexahistidine tag (cynomolgus monkey).
T2 construct: also called MfPD-1-MMH; MIPD-1-MMH
T2 chain: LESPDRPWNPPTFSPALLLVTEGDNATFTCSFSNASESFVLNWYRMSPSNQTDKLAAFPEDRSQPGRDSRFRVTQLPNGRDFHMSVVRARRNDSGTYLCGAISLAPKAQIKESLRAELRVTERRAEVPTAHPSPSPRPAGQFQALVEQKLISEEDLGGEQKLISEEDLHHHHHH
Kind of assay: SPR Biacore, mAb captured, 25 C.
With B11, the kon is 8530 M⁻¹ s⁻¹.
B12: the binding result is recorded as “no binding (tested: 200 nM)”.
On to B13, for which the Kd was determined as 3.8 nM.

The next assay addresses T3, recombinant human PD-1 dimer expressed with a C-terminal mouse IgG2a Fc tag (hPD-1-mFc) (human).
T3 construct: also called human PD-1-mFc
Description: competition ELISA, 1.5 nM hPD-1-mFc, coated hPD-L1-hFc. For orientation: In an ELISA, binding on a coated surface is turned into a signal by an enzyme label.
On to B10, for which the “% blocking at 200 nM antibody” value was found to be 96%.

A further assay concerns the target PD-1 chimera hPD1-hCD300a on Jurkat/AP1-Luc cells (human). Kind of assay: cell-based or functional assay.
With B14, the “Concentration (M) of Antibody at 150% activation” value worked out at 6.62e-09 M.

The target of the next assay is T2, recombinant cynomolgus monkey PD-1 …. Description: SPR Biacore, mAb captured, 37 C.
For the molecule B11, the t½ was 3.6 min.
Still for that read-out and setting: to B15 belongs 0.6 min.

The target of the next assay is T3, recombinant human PD-1 dimer expressed …. Description: BLI Octet Red 96, captured hPD-L1-hFc. (In general: Biolayer interferometry detects binding as a change in optical thickness at a sensor tip.)
With B16, the “binding of the mixture of 100 nM hPD-1-mFc and 500 nM antibody” value came to 0 nm.
Take B17: the “binding of the mixture of 100 nM hPD-1-mFc and 500 nM antibody” value was 0 nm.
As for B18, the “binding of the mixture of 100 nM hPD-1-mFc and 500 nM antibody” value is 0.01 nm.
On the same count and under the same terms, then B14, with -0.01 nm.

A further assay concerns the target T4, monkey PD-1 with mFc (monkey PD-1-mFc) (monkey).
T4 construct: also called monkey PD-1 dimer; MfPD-1 dimer
T4 chain: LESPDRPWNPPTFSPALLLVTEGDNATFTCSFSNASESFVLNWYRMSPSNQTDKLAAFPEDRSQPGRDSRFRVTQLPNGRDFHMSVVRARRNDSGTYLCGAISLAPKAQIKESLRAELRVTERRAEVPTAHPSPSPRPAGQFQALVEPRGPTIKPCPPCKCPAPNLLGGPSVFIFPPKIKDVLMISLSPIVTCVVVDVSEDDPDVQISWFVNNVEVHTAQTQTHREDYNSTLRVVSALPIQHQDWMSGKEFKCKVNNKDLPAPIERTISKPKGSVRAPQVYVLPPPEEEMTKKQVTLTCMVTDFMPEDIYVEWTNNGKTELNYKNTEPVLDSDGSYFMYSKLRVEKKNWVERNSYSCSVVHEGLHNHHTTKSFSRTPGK
Description: SPR 37C, mAb captured.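 Also: Real-time binding of antigen to purified anti-PD-1 antibodies, measured by surface plasmon resonance on a Biacore 4000 or T200 instrument.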
In the case of B3, the “100 nM Monkey PD-1-mFc Bound” value worked out at 94 RU and the t½ was 19 min.
Taken in the same sequence, the figures for B5 were 52 RU and 15 min.
Taken in the same sequence, the figures for B6 were 46 RU and 23 min.
Regarding B7, the “100 nM Monkey PD-1-mFc Bound” value came to 40 RU.
Regarding B8, the “100 nM Monkey PD-1-mFc Bound” value worked out at 60 RU and the t½ stood at 14 min.
For B9, the “100 nM Monkey PD-1-mFc Bound” value is 6 RU and the t½ was 1.1 min.
The matching figures for B10: 36 RU and 45 min.

A further assay has as its target T4, monkey PD-1 with mFc (monkey PD-1-mFc). Description: SPR 25C, mAb captured.
Turning to B3, the “100 nM Monkey PD-1-mFc Bound” value turned out to be 84 RU and the t½ was 77 min.
In the case of B5, the “100 nM Monkey PD-1-mFc Bound” value was 74 RU and the t½ is 81 min.
Taken in the same sequence, the figures for B6 were 52 RU and 104 min.
Taken in the same sequence, the figures for B7 were 83 RU and 67 min.
The matching figures for B8: 64 RU and 94 min.
As to B9, the “100 nM Monkey PD-1-mFc Bound” value came to 17 RU and the t½ was found to be 4 min.
With B10, the “100 nM Monkey PD-1-mFc Bound” value was determined as 31 RU and the t½ was 129 min.

Another assay concerns the target T5, polyclonal rabbit anti-mouse antibody (GE Catalog #BR-1008-38) coupled to the CM5 Biacore sensor surface (rabbit).
T5 construct: also called anti-mouse Fc capture surface
Description: SPR Biacore 3000, antibody alone over the anti-mouse Fc capture surface of the hPD-L1-mFc assay (background control).
On to B4, for which the “500 nM of anti-PD-1 monoclonal antibody (RU)” value is -7 RU.

As a reminder, the koff is a measure of how fast the partners let go of each other. In general, Kd refers to the equilibrium constant for the complex coming apart. As usually defined, the kon is the second-order rate constant of association. As a reminder, the t½ is the time in which the quantity being followed falls by half.
